Assay results reported in the DeepSol protein solubility set.

Assay: soluble on expression in E. coli; label from the status in PepcDB or PDB records

Soluble on expression in E. coli, not soluble:
MGSDKIHHHHHHMPFSSAALHALLQPGVSERWQAVQRLLHPEMLVLANRAAERAAALLPQQWPLYELSFKSRRAIDRGGGRRDPITDYWFAFDRPPRGAGVMLTVSGIERTVTVGLQLWGVRRPQLAHLWSQARPVWEALIDRIEHEGQARFAGRRPPMTGMRWIDHYLNSRAHYLWAGFVYDWNALPTAERLIDDICALLPLNEALMEQAEIDLATTNTLRETPARYLTGAPSVAQIVMSIKRRGMIIDERTLHAFHLAVQARPLVILAGPSGSGKTWLTRLYADALIGIGEGQPNPCYLLVAVQPDWHSARDLLGYYNSLTGLYQPTPFLNFLLKAAADPDQTYIVCLDEMNLARPEYYLAPILSAMEAVEGLIDLGTPLAETPLAGGGVVRNPIRLPINLRLIGTINVDESTFALSDKVLDRANLIELGTVDMAALALTVSDSKRSGLADIERHPAPPDCCRKAGRLPRLARDTWLRWAGNRYERFRSTRSSDSAAPATALAR, MGSDKIHHHHHHMPGFNSSPASEKSSLLRQHFPLVTIPEYNSWDPDIAYIQLEQAILPLLNQGVLLTGSSLGGFWAYQFACRYRQPCLLINPCMHPELSLQRYIGKVENFYSHEQGWLTEAHLGKYAAYRVNGQPSRLTVLHEQGDELIPYMESVVNFSGKAKLILPGGGHHRFARTDLIAACIRDMLPPEDAGHQKA, MGSDKIHHHHHHMPGGGNGILYSNLAAVKEMKMNNLRVVIITGLSGSGKSTALRALEDIGFYCVDNMPVVLLPQFLEIQSDKSKDISQVAMVMDLREKSFIETYKGIFEQIKARGYKIEIVFLYATDDALLHRFSETRRVHPLSSVSIMEGIRLEREQLRALEEMADKVIDTTSCNVHQLKDIVQRHFLPSSTARRLFIHLISFGYRYGLPADADLVLDVRFLPNPYWVESLKSFNGHHQDVRRYVLSAEASSIFLQKLFDLMEFLIPLYEKEGKPRITIAVGCTGGKHRSVVMANELWSYFSGRDYPVNVNHRDVGKS, MGSDKIHHHHHHMPGWAGYYLEFHGNAYSAPFSADIYINVAYPYDGKLVELGGSILGHNQYFYVKSPYTFPDNVHNVDGYVVEWFDEDWQKWVLWHVSYKPALQVIGCPYVSTWNGIEYVPENTVLVESEILKPRKHMDLTDYYLINNSHTIRENIYSIQLQEFEQDTSYIDSIELLVVDYPQGLELSLDPQGNIVLYIPIHTRLNTRFTTEIASSNVNRLKTDLVIVSPYVKTSYSFKVNKVYENKSVESIHLYPRMFPYRYALFTDKDISKLKMELNDHKLYSIEYGIPVNASYHIVKEKPLLATSDIGGEITEELLEDDGHYAVLTPGDNITLNFKVPPALSSRMKRALILVIKGFYVQKPPTLTKDAVRVIYVPEINGYLFVPLLETYDEILSIMWDFGDGTTSDFFVPFHVYKQGKYKGSLKVKYLNGKTLTIPFYWGG, MGSDKIHHHHHHMPHPYHERLNFKTELPLRVISHGTVGPKMVLPHWHRAVELAYAYRGQPGTAHIGRSTYHMLADHLYVINSEVVHSYETFLDEDNQIVTLLLPASWLRNAVADEQLPIWGPLDLDLQSAVYQPLAKAVQTLVAGVITPSSARSAYLTSLGAEYQLVGQLLKHLTVNGQVTSDQLPLPAPLRQAVTELQENYAQPVSIANLAEQLNYSSVYFSRYFKDYMGISPKAYLGQIRLERATSLLMTSQDSIQNIALKTGFSTEKNFFVTFKQYYQMTPRTYRQRYSAQQSWS, MGSDKIHHHHHHMPHYDVVDTSNNNGIMTVANWRSMKKYGVKAMIAKLSEGTYFTDQTAKPSIRNAITAGLHVNGYHFARFTTETGAKAEAQMAARSALKAGLGKSSVIVLDFEATNSGWNQNSKIVKAWINEVHRMGYPKTDVYTMGSWINSVPLNNSGRGGWVANYPYNPSGFKLYTGYNGWQWTSSMHFPGCYGGFDVSQMYSNYYYGTTTHVAKPKKAIYYRYNPKMIYARTPINRYKDVAFKHKVDNFPAGTVFAIAKVINYGKITRFQLANGYYITSNQTNVNRLYYSVDGGVKRVKSVRGTHRYKDKALKHVVDWQPAETEFDVAKIVKYGDTTRIQLANGLFISGNKKINKFVK
